Ends that are not written are not given here.
Assays:
Aβ (1-40) peptide = molecular target: T1, Aβ (1-40) peptide (Homo sapiens, UniProt P05067); assay: In vitro formation of amyloid fibril from Aβ (1-40), Thioflavin T fluorescence; format: biochemical; settings: for effect on Aβ fibril formation (in words): 33 μM Aβ, ThT fluorescence; for Lag (fold change) / Rate (fold change): relative to No addition, asterisk = statistically significant
T1 construct: synthetic Aβ (1-40) peptide; purchased Biosource, Camarillo, Calif., USA; host or cells: chemical synthesis
T1 sequence (P05067 672-711 limits assumed): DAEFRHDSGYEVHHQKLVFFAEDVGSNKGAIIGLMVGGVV
Source text: In vitro formation of amyloidfibril—In vitro formation of amyloid fibril was in the presence of the synthetic Aβ (1-40) peptide (Biosource, Camarillo, Calif., USA) as a precursor. The reporter molecule was Thioflavin T (ThT) (Sigma, Cat. No. T-3516, Jerusalem, Israel), a benzothiazole dye that undergoes a shift in its excitation spectrum (from 340 nm to 450 nm) when interacting with β-sheet amyloid structures. The resultant ThT fluorescence signal is proportional to the amount of amyloid formed (LeVine, 1993). A stock solution of Aβ in dimethylsulfoxide (DMSO) was diluted with phosphate-buffered saline (PBS) containing 0.02% Na-Azid to a final concentration of 162 μM and 20 μl of the diluted Aβ solution was placed in each well of a 96 multiwell plate (Nunc, Roskilde, Denmark). After 20 minutes of pre-incubation at room temperature of the Aβ samples (20 μl), 80 μl of 1.25 μM ThT in 50 mM glycine buffer, pH 8.5, was added. Incubation was with shaking at 200 rpm for 6 to 8 hours at the noted temperatures. Fluorescence was measured continuously or at 30-40 minute intervals, using a Spectro-fluorometer (Tecan, Maennedorf, Switzerland). Excitation and emission wavelengths were 450 nm and 485 nm, respectively. Enhancement of the fibrillation process by the different combinations of water-dissolved cholinesterases and peptides mimicking fragments thereof, was evaluated by dissecting the time curves into two stages: the lag before the onset of the fluorescence increase (the nucleation process) and the average rate of fluorescence increase at several time points (rate of fibrils formation). Statistics analysis was performed using the Kaleidagraph Software (Reading, Pa., USA).
BChE attenuates amyloid fibrils formation—Amyloid fibril (Aβ) formation was quantified by measuring changes in ThT fluorescence. As predicted, Aβ fibrils were spontaneously formed in vitro provided that the Aβ peptide was present above 5 μM. […] Reactions were performed in the absence or presence of increasing concentrations of purified human BChE (SEQ ID NO:2; FIG. 1a), recombinant ACHE-S (SEQ ID NO:6; FIG. 1b) or both (FIGS. 1c and d). […] Due to the complex kinetics of the fibril formation process the apparent rate of change in ThT fluorescence was repeatedly determined during the exponential phase of increase in its signal (at 390±20 minutes). […] In contrast, addition of similar doses of AChE to Aβ, predictably shortened by half the lag time prior to fibril formation, again in a dose dependent manner (FIG. 1e). The lag period therefore decreased from 240 minutes to 150 minutes and the maximal rate of fibril formation increased from 0.057 to 0.116 fluorescence units (FU)/min for Aβ alone as compared to Aβ in the presence of 0.36 μM AChE-S (FIG. 1b and Table 7, hereinbelow). When increasing doses of hBChE were added to a combined mix of 33 μM Aβ with 0.36 μM AChE-S, a dose-dependent interference with the fibril formation process was observed (FIG. 1c and 2a). Thus, BChE is capable of reducing the rate of fibrillation of Aβ alone, or Aβ which is formed in the presence of AChE.

[1] = Solubility in water for CD measurements; format: physicochemical; settings: up to the concentration required for CD tests (1×10^−4 M); HFIP used instead
Method: Circular Dichroism (CD) measurements—For circular dichroism (CD) measurements, ASP peptides were dissolved in double distilled water (DDW) to a final concentration of 1×10^−4 M. To reach this concentration, as required for the CD measurements, BSP had to be dissolved in 1,1,1,3,3,3-hexafluoro-2-propanol (HFIP). Direct CD spectra were recorded at room temperature using a CD Jasco J-810 Spectropolarimeter (Easton, Md., USA) with a 1 mm path length cell. Recordings were at 0.5 nm intervals in the spectral range 185-260 nm.
Molecular modeling points at putative structural differences between BSP and ASP—In search for structural differences between the BSP and ASP peptides, the circular dichroism (CD) properties of the synthesized series of BSP and ASP peptides were determined (FIG. 4). […] The helical features observed for ASP40 are in line with reports of others (Cottingham et al., 2003).

ASP23: synthetic AChE-S C-terminal peptide, mimics residues 592-614 in hAChE [reference compound]
effect on Aβ fibril formation (in words) (Aβ (1-40) peptide): no significant effect on amyloid formation
Lag (fold change) (Aβ (1-40) peptide): 1.1 fold change
Rate (fold change) (Aβ (1-40) peptide): 1.2 fold change

ASP40: synthetic AChE-S C-terminal peptide, mimics residues 575-614 in hAChE (DTLDEAERQWKAEFHRWSSYMVHWKNQFDHYSKQDRCSDL; ASP40 Synthetic peptide) [reference compound]
effect on Aβ fibril formation (in words) (Aβ (1-40) peptide): failed to show any significant capacity to activate or inhibit fibrillation
Lag (fold change) (Aβ (1-40) peptide): 1.1 fold change
Rate (fold change) (Aβ (1-40) peptide): 0.8 fold change

GNIDEAEWEWKAGFHRWNNYMMDWKNQFNDYTSKKESCVGL [BSP41]
solubility in water (in words) [1]: difficulties to solubilize

— patent publication US20090169520A1, “Compounds, Pharmaceutical Compositions and Therapeutic Methods of Preventing and Treating Diseases and Disorders Associated With Amyloid Fibril Formation” (YISSUM RESEARCH DEVELOPMENT COMPANY OF THE HEBREW …, priority 2005, published 2009)
